Data reported in patent US20250179197A1 (DIAGONAL THERAPEUTICS, published 2025).
Each block holds one binder with its values, some of them ahead of it.

Tests used:
Test in all cases: cell-based or functional assay
[1] = molecular target: T1, IL-18 receptor (IL-18Rα and IL-18Rβ) on HEK-Blue IL-18 cells (UniProt Q13478 19-541; O95256 20-599, limits assumed)
T1 sequence (looked up) 1: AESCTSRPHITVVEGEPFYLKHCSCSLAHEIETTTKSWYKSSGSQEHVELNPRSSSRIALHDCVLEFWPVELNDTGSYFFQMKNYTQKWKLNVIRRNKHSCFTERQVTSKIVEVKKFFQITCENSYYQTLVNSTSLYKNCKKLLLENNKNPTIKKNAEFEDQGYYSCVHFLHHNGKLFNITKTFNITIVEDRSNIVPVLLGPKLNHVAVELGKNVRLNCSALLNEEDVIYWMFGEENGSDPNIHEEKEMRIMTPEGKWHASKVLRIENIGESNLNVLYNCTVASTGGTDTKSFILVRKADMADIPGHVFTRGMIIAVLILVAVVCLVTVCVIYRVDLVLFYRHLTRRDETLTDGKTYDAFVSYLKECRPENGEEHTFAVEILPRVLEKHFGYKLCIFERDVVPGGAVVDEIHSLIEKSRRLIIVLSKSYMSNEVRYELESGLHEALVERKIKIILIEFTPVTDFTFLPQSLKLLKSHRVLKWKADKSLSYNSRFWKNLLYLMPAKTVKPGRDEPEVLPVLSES
T1 sequence (looked up) 2: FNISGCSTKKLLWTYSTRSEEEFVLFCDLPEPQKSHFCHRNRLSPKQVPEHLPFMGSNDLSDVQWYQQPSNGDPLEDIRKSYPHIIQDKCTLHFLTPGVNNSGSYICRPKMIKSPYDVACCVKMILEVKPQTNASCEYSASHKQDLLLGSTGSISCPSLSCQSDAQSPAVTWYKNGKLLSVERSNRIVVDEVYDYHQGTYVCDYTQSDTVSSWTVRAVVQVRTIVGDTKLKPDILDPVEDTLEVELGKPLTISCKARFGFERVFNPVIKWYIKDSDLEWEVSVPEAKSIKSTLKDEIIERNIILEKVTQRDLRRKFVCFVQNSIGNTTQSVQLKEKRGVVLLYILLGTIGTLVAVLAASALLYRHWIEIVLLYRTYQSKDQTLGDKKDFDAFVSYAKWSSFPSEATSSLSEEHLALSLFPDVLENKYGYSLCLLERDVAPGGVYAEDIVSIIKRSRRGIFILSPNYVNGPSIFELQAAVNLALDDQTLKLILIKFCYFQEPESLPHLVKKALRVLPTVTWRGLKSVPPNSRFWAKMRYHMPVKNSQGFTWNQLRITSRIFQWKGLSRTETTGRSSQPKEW

[2] = molecular target: T2, IL-18 receptor (IL-18Rα/IL-18Rβ) on human PBMCs (human, UniProt Q13478 19-541; O95256 20-599)
T2 sequence (looked up) 1: T1 sequence (looked up) 1
T2 sequence (looked up) 2: T1 sequence (looked up) 2

[3] = molecular target: T1, IL-18 receptor (IL-18Rα and IL-18Rβ) on …; remark: listed apart in the source

HEK-Blue: Abs 405 at 100 nM [1]: 1.87 absorbance
HEK-Blue: Fold over background [1]: 10.1 fold
Calculated maximum induction of IFN-γ after 24 hours, donor 1 [2]: 16000
Calculated maximum induction of IFN-γ after 24 hours, donor 2 [2]: 1300
Calculated maximum induction of IFN-γ after 24 hours, donor 3 [2]: 22000
Calculated maximum induction of IFN-γ after 24 hours, donor 4 [2]: 19000
Calculated maximum induction of IFN-γ after 24 hours, donor 5 [2]: 15000
Calculated maximum induction of IFN-γ after 24 hours, donor 6 [2]: 2400
EC50 (read off the curve) [3]: ~1 nM
B1: DGL620 (bispecific antibody)
chain 1: EVQLLESGGGLVQPGGSLRLSCAASGRTFSKHAMGWFRQAPGKGLEFVSAIDWSGGSTYYADSVKGRFTISRDNSKNTVYLQMNSLRAEDTAVYYCAADSYTDYAQLWLPELESEYDYWGQGTLVTVSSCPPCPAPEAAGAPSVFLFPPKPKDTLYITREPEVTCVVVDVSHEDPEVKFNWYVDGVEVHNAKTKPREEQYNSTYRVVSVLTVLHQDWLNGKEYKCKVSNKALPAPIEKTISKAKGQPREPQVCTLPPSRDELTKNQVSLSCAVKGFYPSDIAVEWESNGQPENNYKTTPPVLDSDGSFFLVSKLTVDKSRWQQGNVFSCSVMHEALHNHYTQKSLSLSPG
chain 2: QLQLLESGGGLVQAGGSLRLSCAASRSITFSHNVMGWYRQAPGKGRELVSSIGSGGSTNYVDSVKGRFTISRDNSKKTLYLQMNSLRAEDTAVYYCGVVVGVYRGSLGQGTLVTVSSCPPCPAPEAAGAPSVFLFPPKPKDTLYITREPEVTCVVVDVSHEDPEVKFNWYVDGVEVHNAKTKPREEQYNSTYRVVSVLTVLHQDWLNGKEYKCKVSNKALPAPIEKTISKAKGQPREPQVYTLPPCRDELTKNQVSLWCLVKGFYPSDIAVEWESNGQPENNYKTTPPVLDSDGSFFLYSKLTVDKSRWQQGNVFSCSVMHEALHNHYTQKSLSLSPG

HEK-Blue: Abs 405 at 100 nM [1]: 1.34 absorbance
HEK-Blue: Fold over background [1]: 7.2 fold
Calculated maximum induction of IFN-γ after 24 hours, donor 1 [2]: 16000
Calculated maximum induction of IFN-γ after 24 hours, donor 2 [2]: 1700
Calculated maximum induction of IFN-γ after 24 hours, donor 3 [2]: 22000
Calculated maximum induction of IFN-γ after 24 hours, donor 4 [2]: 17000
Calculated maximum induction of IFN-γ after 24 hours, donor 5 [2]: 15000
Calculated maximum induction of IFN-γ after 24 hours, donor 6 [2]: 3000
B2: DGL346 (bispecific antibody)
chain 1: EVQLVESGGGLIQPGGSLRLSCAASGSISSRDTMGWYRQAPGKGREMVSVISSSGNTNYADSVLGRFTISRDNAKNTVYLQMNALRAEDTAVYKCYAHRTYGVDYWGQGTLVTVSSGGGSQVQLVESGGGLVQPGGSLRLSCAASGRTFSSYTMGWFRQAPGKGREFVSAISWSAGRTYYADSVKGRFTISRDNAKNTVYLQMNALRAEDTAVYYCAAEEAPDWAPIDCSGYGCLSLYDYWGQGTLVTVSDKTHTCPPCPAPEAAGAPSVFLFPPKPKDTLYITREPEVTCVVVDVSHEDPEVKFNWYVDGVEVHNAKTKPREEQYNSTYRVVSVLTVLHQDWLNGKEYKCKVSNKALPAPIEKTISKAKGQPREPQVCTLPPSRDELTKNQVSLSCAVKGFYPSDIAVEWESNGQPENNYKTTPPVLDSDGSFFLVSKLTVDKSRWQQGNVFSCSVMHEALHNHYTQKSLSLSPG
chain 2: DKTHTCPPCPAPEAAGAPSVFLFPPKPKDTLYITREPEVTCVVVDVSHEDPEVKFNWYVDGVEVHNAKTKPREEQYNSTYRVVSVLTVLHQDWLNGKEYKCKVSNKALPAPIEKTISKAKGQPREPQVYTLPPCRDELTKNQVSLWCLVKGFYPSDIAVEWESNGQPENNYKTTPPVLDSDGSFFLYSKLTVDKSRWQQGNVFSCSVMHEALHNHYTQKSLSLSPG

HEK-Blue: Abs 405 at 100 nM [1]: 0.9 absorbance
HEK-Blue: Fold over background [1]: 4.9 fold
Calculated maximum induction of IFN-γ after 24 hours, donor 1 [2]: 13000
Calculated maximum induction of IFN-γ after 24 hours, donor 2 [2]: 620
Calculated maximum induction of IFN-γ after 24 hours, donor 3 [2]: 17000
Calculated maximum induction of IFN-γ after 24 hours, donor 4 [2]: 9300
Calculated maximum induction of IFN-γ after 24 hours, donor 5 [2]: 1500
Calculated maximum induction of IFN-γ after 24 hours, donor 6 [2]: 1300
B3: DGL336 (bispecific antibody, V domains shown)
V domain 1: EVQLLESGGGLVQPGGSLRLSCAASGRTFSKHAMGWFRQAPGKGLEFVSAIDWSGGSTYYADSVKGRFTISRDNSKNTVYLQMNSLRAEDTAVYYCAADSYTDYAQLWLPELESEYDYWGQGTLVTVSS
V domain 2: EVQLVESGGGLIQPGGSLRLSCAASGSISSRDTMGWYRQAPGKGREMVSVISSSGNTNYADSVLGRFTISRDNAKNTVYLQMNALRAEDTAVYKCYAHRTYGVDYWGQGTLVTVSS
